For the experiment, the system named is Flag-RAI-3. Briefly: Anti-FLAG immunoprecipitation and anti-phosphotyrosine Western blot of A549 cells transiently transfected with Flag-RAI-3. The note with it: CS-160 1 to 3 hours, EGF 10 nM. The format is cell-based, human. How it is done:
FIGS. 26A and 26B illustrate the results of Western Blot analysis of an A549 cell line (Human Lung Carcinoma CCL-185, American Type Culture Collection, Manassas, Va.) transiently transfected with a FLAG RAI-3 construct (described herein). Media on the cells was changed to serum-free and 48 hours port-transfection the cells were treated with cigarette smoke-bubbled media (i.e., CS-160, the equivalent of 160 cigarettes per 500 ml of cell medium) for the periods of time shown (1 hr., 2 hr., and 3 hr.) and with EGF (10 nM) for 5 minutes. Lysates were immuno-precipitated with 2 μg of anti-FLAG M2 antibody (Catalog # F-3165, Sigma, Saint Louis, Mo.) and 40 μl of Protein A. The Protein A/lysate/antibody mixture was washed, aspirated “dry”, and 60 μl of 2×SDS-PAGE sample buffer was added. After heating at 95° C. for 10 minutes, the samples were loaded onto two 4-20% gradient gels, resolved by SDS-PAGE and transferred to nitrocellulose by standard Western Blotting techniques.
The A549 cell line (American Type Culture Collection, Manassas, Va.) was plated in 100 mm petri dishes and transfected at about 75% confluency. […]
(In western blotting, separated proteins are transferred to a membrane and probed.)

B1: epidermal growth factor (protein, UniProt P01133 23-1207, looked up)
Pro-epidermal growth factor: PQHWSCPEGTLAGNGNSTCVGPAPFLIFSHGNSIFRIDTEGTNYEQLVVDAGVSVIMDFHYNEKRIYWVDLERQLLQRVFLNGSRQERVCNIEKNVSGMAINWINEEVIWSNQQEGIITVTDMKGNNSHILLSALKYPANVAVDPVERFIFWSSEVAGSLYRADLDGVGVKALLETSEKITAVSLDVLDKRLFWIQYNREGSNSLICSCDYDGGSVHISKHPTQHNLFAMSLFGDRIFYSTWKMKTIWIANKHTGKDMVRINLHSSFVPLGELKVVHPLAQPKAEDDTWEPEQKLCKLRKGNCSSTVCGQDLQSHLCMCAEGYALSRDRKYCEDVNECAFWNHGCTLGCKNTPGSYYCTCPVGFVLLPDGKRCHQLVSCPRNVSECSHDCVLTSEGPLCFCPEGSVLERDGKTCSGCSSPDNGGCSQLCVPLSPVSWECDCFPGYDLQLDEKSCAASGPQPFLLFANSQDIRHMHFDGTDYGTLLSQQMGMVYALDHDPVENKIYFAHTALKWIERANMDGSQRERLIEEGVDVPEGLAVDWIGRRFYWTDRGKSLIGRSDLNGKRSKIITKENISQPRGIAVHPMAKRLFWTDTGINPRIESSSLQGLGRLVIASSDLIWPSGITIDFLTDKLYWCDAKQSVIEMANLDGSKRRRLTQNDVGHPFAVAVFEDYVWFSDWAMPSVMRVNKRTGKDRVRLQGSMLKPSSLVVVHPLAKPGADPCLYQNGGCEHICKKRLGTAWCSCREGFMKASDGKTCLALDGHQLLAGGEVDLKNQVTPLDILSKTRVSEDNITESQHMLVAEIMVSDQDDCAPVGCSMYARCISEGEDATCQCLKGFAGDGKLCSDIDECEMGVPVCPPASSKCINTEGGYVCRCSEGYQGDGIHCLDIDECQLGEHSCGENASCTNTEGGYTCMCAGRLSEPGLICPDSTPPPHLREDDHHYSVRNSDSECPLSHDGYCLHDGVCMYIEALDKYACNCVVGYIGERCQYRDLKWWELRHAGHGQQQKVIVVAVCVVVLVMLLLLSLWGAHYYRTQKLLSKNPKNPYEESSRDVRSRRPADTEDGMSSCPQPWFVVIKEHQDLKNGGQPVAGEDGQAADGSMQPTSWRQEPQLCGMGTEQGCWIPVSSDKGSCPQVMERSFHMPSYGTQTLEGGVEKPHSLLSANPLWQQRALDPPHQMELTQ
modifications: Pro-epidermal growth factor
Regarding B1, the “tyrosine phosphorylation of recombinant Flag-RAI-3 protein” value was “does not appear to cause tyrosine phosphorylation”.

Source of the values: patent publication US7517652B2, “Methods of diagnosing tumors using the G-protein coupled receptor (GPCR), RAI-3” (Bristol-Myers Squibb Company, priority 2002, dated 2009).
